Tested on: K4 kissing-loop RNA reporter
Assay: apparent KD of K4 kissing-loop reporter; higher = weaker reporter binding
Conditions: Eterna round: R107; input ligand: FMN 200 uM
Description: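 RNA-MaP round R107: designed RNA switches with theophylline, tryptophan, arginine or FMN aptamers are transcribed on-chip within common flanks. They are titrated with a labelled K4 kissing-loop RNA reporter in RNA-MaP buffer (100 mM Tris pH 7.5, 80 mM KCl, 4 mM MgCl2), without ligand or with the indicated ligand. Median apparent KD per design.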
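Also: bound reporter read as fluorescence of individual clusters on recovered sequencing chips by microscopy, with normalized cluster intensities fitted with a binding model.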

| Sequence | apparent KD of K4 kissing-loop reporter [nM] |
| --- | --- |
| AAGGAAUGUAUAGAUUAUAUACAUUCAACAGAGGAUAUGCAUUAUUGCAGAAGGCUGAAUGCAGUGAUGUUGCAAUAAUUAUUUA [#09 K4 FMN A Same State] | 60.5 |
| ACGUAGUACGUAGGAUAUCAGAGAUCAGUUAGUGAGAUCGAGUGAUGUUCGAUCAUGUGUUCAGUUUGAGAAGGAUGUAGUAGGA [KL-SSFMN-B5] | 214 |
| GUACGCUCUCGAGUGAUGUUCGGUAAUCCUUAGGAUAUCGCUUUUGCGAGAAGGAAGGGAAUGAGGAAACUCGUUCUGAGUGUAC [FMN A 21] | 523 |
| CCGAGCCUGACGAAAGUCAGGCUCUGCGAGCGAGGACCGGUACGGCCGCCACUCGGUGCAGUGAUGUUGCAUGGCCGCAAGGCCG [#2 Exclusion - Tryptophan A Attempt #22 (HarryS)] | 156 |
| UUUUUGGAGAAUUAUAGUGAUGUUAUGAAGGAGGAUAUCUGGAGAUGGAGAAGGCCUAGUGGCUCAGCCAUGGAGGGUGGGUGGG [ExFMNA.aA] | 1110 |
| AGACUACCACACUGUCAAUAGACAGUGGACUAGGAUAUGCUGAUAAGCAGAAGGAGUGAUGUUCCUUGGUAGUCAAUAAAAUAAU [FmnAX 13 G28+U67] | 308 |
| GGGAGAGCGCGAAGGAGCGCCCUGACAGGUUGCUGCCGUGGGCAGUGAUGUUGCUCAGUCCGGCAGGUAGGUCGCGUGCUCUCCC | 178 |
| ACGACGCAUAGUGAUACCAGCUAUAUAUGAGUGAUGUUCUACCUAAAAUGGUAAUAAUUUAGCCCUUGGCAGCACUAUGCGUCAG [KL-SSTheoB4] | 380 |
| AGGAGUGAUGUUCCUACAUAGACGGUCCAACGAGGACCGGUACGGCCGCCACUCGCGACCCAGUGAUGUUGGGAUUCACCGUACA [Exclusion Tryptophan A Gf 14] | 723 |
| UUAGAAGUAUACUUCAAGAGCUAUACUGAUACCAGAGUCAAUUGACUCCCUUGGCAGCGGAUCGAGUGAUGUUCGUAAGCUCAUU [AK4 SS Theophylline A] | 464 |
| UAAGAGGACCACUGCAAGAGUCCUCGAAUACGAGGACCGGUACGGCCGCCACUCGAUAACUUGCAGUGAUGUUGCAAGUAAGAAU [(T)''-(K)'-(T)'-(T1)-(T2)-(K1)-(K2)_Design1] | 124 |
| UGUGUUUACCUGACUCAGUGAUGUUGAGAAGGAGCGUGCAAAGGCACAGGUAGGUCGCUCAACCUAAAUUCAGGUGAGCACUAAA | 246 |
| UUCAGUGAUGUUGAACACUGUUGUAUAAACUAGGAUAUGCUGAUAAGCAGAAGGAGUGAUGUUCCGUUCAUCAUCAGAAUUAAAU [KL-XFMN-A3] | 673 |
| CCUAUCUCAUACGAUACCAGUCAAUUAAAUUUUAUAAAUGCCAUCACCGAGUGAUGUUCGGACCCUUGGCAGCGUAUGGGAUAGG [Ex Theophylline B K4 2] | 222 |
| CCAGGACGAUGAGGAGGAUGAAUUACUGAAGGAGCGCAUAUGGUUGCAGGUAGGUCGCGGUGAACAAGUAUAGUGAUGUUAUACC [SSArgA.T] | 339 |
| GCGCGUCAUGUCAGCGGUGACUACGUCGAUACCAGCAGGGAAACCUGCCCUUGGCAGCGACGCGCUGGAGUGAUGUUCCGACGGA [#2 Exclusion - Theophylline A Attempt #6 (HarryS)] | 434 |
| CUCGAGUGAUGUUCGAUUAUUUAUACAGAUACCAGUGAAUUUUAACACCCUUGGCAGCUGGUUGUAUCUUUGUAAUUUACACAAG [JR_ExcTheophyA_Sub005] | 120 |
| AGAAGGAGAACUGCAAGAACUCCUUCAGACUAGGAUAUCAGGAAACUGAGAAGGAGUCAACUUGCAGUGAUGUUGCAAGAAUAAU [[F]''-[K]'-[F]'-[F1]-[F2]-[K1]-[K2]_Design1] | 155 |
| ACGGGCGGCUGAAGGAGCGGGCGGGCCCGAGUGAUGUUCGGGUGGGCCGUGAGGCCCGGAGCCCAGGUAGGUCGCGGUUCCGUCC [#2 Same State - Arginine B Attempt #21 (HarryS)] | 135 |
| CUGGGUUGACGAAAAGUCAACAAACGAGAAGGAGCGCACGAAAGUGCAGGUAGGUCGCUCAGUCCAGUGAUGUUGGAUCAUCCAG [#SwitchBubble 9 #K4Late] | 265 |
| GAAUUAUGUAGAAGGAGCGUUAGAAGGUAUAGGUGUGAGUGAUGUUCGGAUUUGUUAAUUUGACAGGUAGGUCGCUACAGAAGGA [KL-SSArg B17 #analogue] | 435 |
| UUGAGCCGGACUCAAGUCCGGCUCUGCGAGCGAGGACCGGUACGGCCGCCACUCGGUGCAGUGAUGUUGCAUGGCCGCAAGGCCG [#2 Exclusion - Tryptophan A Attempt #13 (HarryS)] | 413 |
| UGUGGUGUAUCCUUUAGGAGUGAUGUUUUUCGAGGACCGGUACGGCCGCCACUCGAGUGAUGAGAGCGUCGUUGUGGUGGUUUGU [#16 K4 Tryptophan A Exclusion] | 1060 |
| AAAAUAAACCAGUGAUGUUGGUGUCUAGAUACCAGCGACGAAAGUCGCCCUUGGCAGCUAUGGACGUACAAAAUAAGUACGUCCU [MatMod 6 - Jieux - Same State - Theophylline A] | 647 |
| AAAUUUUAAAGUGAUACCAGACAUCUCUAUUACAUUAAUAUAGCUAAGUGAUGUUUAGCAGUCCCUUGGCAGCACAAUUUAAUUA [JR_SSTheophyB_Sub012] | 336 |
| AGUUCUUGCCGAAGGAGCGAGGCAGAGUGAUGUUCUGCAGAUGUCGAAAGACAUCAACUGCCUCAGGUAGGUCGCGGCAUGAACA [#05 K4 Arginine B Exclusion] | 114 |
| UUGAUAUGAUAAUAUCCUGUUUGAUAAAGACAGGAUAUAGAAAAUACUAGAAGGGUCAUUAUAUGCAGUGAUGUUGCAAAUAAGU [Exclusion FMN A Gf 23] | 42.2 |
| UGAUACCAGACUGAUACCAGCUAGUGAUGUUAGCUAAAAUCAGGGUCAAAGACCCUGUCUGGCCCUUGGCAGCAGUCUGGUAUCU [TheoBX 10 #SwitchBubble #StaticStem] | 137 |
| CAAUGAGUAUAAGAUGAUAUCAUAACAGAAGGAGCGAGUGAUAACUCAGGUAGGUCGCUGAAUUUAUCGAGUGAUGUUCGAUAAA [whbob_SS_Arginine_A_sa116] | 205 |
| UGUGUUUACCUGACUCAGUGAUGUUGAGAAGGAGCGUGCAAAAGCACAGGUAGGUCGCUCAACCUAAAUUCAGGUGAGCACUAAA | 270 |

Same assay, conditions: Eterna round: R107; input ligand: arginine 13.2 mM

| Sequence | apparent KD of K4 kissing-loop reporter [nM] |
| --- | --- |
| AAGGAAUGUAUAGAUUAUAUACAUUCAACAGAGGAUAUGCAUUAUUGCAGAAGGCUGAAUGCAGUGAUGUUGCAAUAAUUAUUUA [#09 K4 FMN A Same State] | 199 |
| ACGUAGUACGUAGGAUAUCAGAGAUCAGUUAGUGAGAUCGAGUGAUGUUCGAUCAUGUGUUCAGUUUGAGAAGGAUGUAGUAGGA [KL-SSFMN-B5] | 280 |
| GUACGCUCUCGAGUGAUGUUCGGUAAUCCUUAGGAUAUCGCUUUUGCGAGAAGGAAGGGAAUGAGGAAACUCGUUCUGAGUGUAC [FMN A 21] | 299 |
| CCGAGCCUGACGAAAGUCAGGCUCUGCGAGCGAGGACCGGUACGGCCGCCACUCGGUGCAGUGAUGUUGCAUGGCCGCAAGGCCG [#2 Exclusion - Tryptophan A Attempt #22 (HarryS)] | 223 |
| UUUUUGGAGAAUUAUAGUGAUGUUAUGAAGGAGGAUAUCUGGAGAUGGAGAAGGCCUAGUGGCUCAGCCAUGGAGGGUGGGUGGG [ExFMNA.aA] | 527 |
| AGACUACCACACUGUCAAUAGACAGUGGACUAGGAUAUGCUGAUAAGCAGAAGGAGUGAUGUUCCUUGGUAGUCAAUAAAAUAAU [FmnAX 13 G28+U67] | 269 |
| GGGAGAGCGCGAAGGAGCGCCCUGACAGGUUGCUGCCGUGGGCAGUGAUGUUGCUCAGUCCGGCAGGUAGGUCGCGUGCUCUCCC | 148 |
| ACGACGCAUAGUGAUACCAGCUAUAUAUGAGUGAUGUUCUACCUAAAAUGGUAAUAAUUUAGCCCUUGGCAGCACUAUGCGUCAG [KL-SSTheoB4] | 456 |
| AGGAGUGAUGUUCCUACAUAGACGGUCCAACGAGGACCGGUACGGCCGCCACUCGCGACCCAGUGAUGUUGGGAUUCACCGUACA [Exclusion Tryptophan A Gf 14] | 753 |
| UUAGAAGUAUACUUCAAGAGCUAUACUGAUACCAGAGUCAAUUGACUCCCUUGGCAGCGGAUCGAGUGAUGUUCGUAAGCUCAUU [AK4 SS Theophylline A] | 456 |
| UAAGAGGACCACUGCAAGAGUCCUCGAAUACGAGGACCGGUACGGCCGCCACUCGAUAACUUGCAGUGAUGUUGCAAGUAAGAAU [(T)''-(K)'-(T)'-(T1)-(T2)-(K1)-(K2)_Design1] | 129 |
| UGUGUUUACCUGACUCAGUGAUGUUGAGAAGGAGCGUGCAAAGGCACAGGUAGGUCGCUCAACCUAAAUUCAGGUGAGCACUAAA | 331 |
| UUCAGUGAUGUUGAACACUGUUGUAUAAACUAGGAUAUGCUGAUAAGCAGAAGGAGUGAUGUUCCGUUCAUCAUCAGAAUUAAAU [KL-XFMN-A3] | 400 |
| CCUAUCUCAUACGAUACCAGUCAAUUAAAUUUUAUAAAUGCCAUCACCGAGUGAUGUUCGGACCCUUGGCAGCGUAUGGGAUAGG [Ex Theophylline B K4 2] | 175 |
